These results are taken from article PMC3719020.

For one assay, the target named is Pelota (UniProt Q9BRX2). The experiment in a line: pull-down; 800 μl RRL incubated with 200 μl of Pelota resin (Pelota immobilized via CnBr); unconjugated quenched CnBr resin as control; depleted lysate blotted for Hbs1.
Assay [1] has as its target 60S-nascent chain-tRNA complex (β-VHP) (not stated | rabbit (endogenous in reticulocyte lysate)) (UniProt P60468).
Assay [2] has as its target β-VHP ribosome-nascent chain complexes (RNCs) (not stated | rabbit (endogenous in reticulocyte lysate)) (UniProt P60468).

Chain of UniProt Q9BRX2 (Q9BRX2 whole entry): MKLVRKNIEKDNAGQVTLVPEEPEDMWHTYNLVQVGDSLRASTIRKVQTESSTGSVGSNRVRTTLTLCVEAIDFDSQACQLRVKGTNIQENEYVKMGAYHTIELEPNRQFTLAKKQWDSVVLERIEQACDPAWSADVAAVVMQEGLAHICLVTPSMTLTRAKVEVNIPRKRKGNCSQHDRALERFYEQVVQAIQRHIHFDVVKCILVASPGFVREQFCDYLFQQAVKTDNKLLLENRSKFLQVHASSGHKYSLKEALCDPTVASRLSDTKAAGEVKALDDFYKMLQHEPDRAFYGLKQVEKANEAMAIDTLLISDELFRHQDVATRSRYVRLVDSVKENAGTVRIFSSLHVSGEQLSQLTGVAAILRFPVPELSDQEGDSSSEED

In turn, Hbs1 (enzyme) gave a percent of Hbs1 depleted from the lysate by the Pelota resin with Pelota of 80 to 90%.

Listerin (enzyme): the nascent chain ubiquitination of sucrose gradient fractions incubated with E1, E2, ubiquitin and ATP; 60S-nascent chain complexes against 80S RNCs in assay [1] came to 10 fold. In assay [2], this substance registered an inhibition of β-VHP nascent chain ubiquitination by the GTPase mutant Hbs1 H348A (Hbs1-DN) added to the translation reaction of 90% and an inhibition of β-VHP nascent chain ubiquitination by the GTPase mutant Hbs1 V269G added to the translation reaction of 60%.
